Experimental data from US20090226456A1 (published 2009).

Experiments:
Assay in all cases: flow cytometry on transiently transfected cells
[1] = molecular target: T1, TNFR2 on transiently transfected cells (human, UniProt P20333 23-461)
T1 sequence: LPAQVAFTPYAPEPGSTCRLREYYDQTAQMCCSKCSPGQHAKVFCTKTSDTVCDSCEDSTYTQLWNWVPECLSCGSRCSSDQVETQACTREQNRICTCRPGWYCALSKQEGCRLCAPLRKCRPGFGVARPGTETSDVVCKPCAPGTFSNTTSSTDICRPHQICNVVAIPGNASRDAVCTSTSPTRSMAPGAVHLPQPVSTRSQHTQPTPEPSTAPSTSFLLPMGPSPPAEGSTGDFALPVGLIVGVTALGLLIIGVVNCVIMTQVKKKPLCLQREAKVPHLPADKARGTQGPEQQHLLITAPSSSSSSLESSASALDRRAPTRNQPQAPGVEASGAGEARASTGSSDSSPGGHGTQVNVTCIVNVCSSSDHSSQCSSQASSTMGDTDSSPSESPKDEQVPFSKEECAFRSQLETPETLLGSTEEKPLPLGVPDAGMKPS
Method: (§1) One million cells, in 0.1 ml of FACS buffer (PBS, 0.1% BSA, 0.1% NaN₃), were incubated with 0.1-1 microgram of protein or antibody at RT for 15 min. The cells were washed with 3 ml of FACS buffer, reacted with biotinylated primary antibody, and stained with PE-conjugated secondary antibody at RT for 15 min. Cells were then washed again, resuspended in 0.5 microgram/ml of propidium iodide, and live cells were gated and analyzed on a FACScan using the CellQuest software (BD Biosciences).

[2] = molecular target: T2, AITR on transiently transfected cells (UniProt Q9Y5U5 26-241, limits assumed)
T2 construct: whole, on cells
T2 sequence (looked up): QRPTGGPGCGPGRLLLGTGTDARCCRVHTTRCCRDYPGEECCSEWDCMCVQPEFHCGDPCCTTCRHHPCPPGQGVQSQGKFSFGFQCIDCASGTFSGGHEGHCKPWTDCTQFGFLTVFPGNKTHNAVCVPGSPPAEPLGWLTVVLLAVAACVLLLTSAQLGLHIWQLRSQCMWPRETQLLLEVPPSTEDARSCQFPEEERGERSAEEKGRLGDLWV
Method: as §1

[3] = molecular target: T3, DcR1 on transiently transfected cells (UniProt O14798 26-236, limits assumed)
T3 construct: whole, on cells
T3 sequence (looked up): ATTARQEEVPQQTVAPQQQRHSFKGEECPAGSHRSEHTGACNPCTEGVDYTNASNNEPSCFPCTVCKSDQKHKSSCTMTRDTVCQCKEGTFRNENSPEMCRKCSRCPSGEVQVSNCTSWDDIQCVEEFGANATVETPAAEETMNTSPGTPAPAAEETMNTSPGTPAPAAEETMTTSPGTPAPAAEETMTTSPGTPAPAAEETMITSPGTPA
Method: as §1

[4] = molecular target: T4, RANK on transiently transfected cells (UniProt Q9Y6Q6 30-616, limits assumed)
T4 construct: whole, on cells
T4 sequence (looked up): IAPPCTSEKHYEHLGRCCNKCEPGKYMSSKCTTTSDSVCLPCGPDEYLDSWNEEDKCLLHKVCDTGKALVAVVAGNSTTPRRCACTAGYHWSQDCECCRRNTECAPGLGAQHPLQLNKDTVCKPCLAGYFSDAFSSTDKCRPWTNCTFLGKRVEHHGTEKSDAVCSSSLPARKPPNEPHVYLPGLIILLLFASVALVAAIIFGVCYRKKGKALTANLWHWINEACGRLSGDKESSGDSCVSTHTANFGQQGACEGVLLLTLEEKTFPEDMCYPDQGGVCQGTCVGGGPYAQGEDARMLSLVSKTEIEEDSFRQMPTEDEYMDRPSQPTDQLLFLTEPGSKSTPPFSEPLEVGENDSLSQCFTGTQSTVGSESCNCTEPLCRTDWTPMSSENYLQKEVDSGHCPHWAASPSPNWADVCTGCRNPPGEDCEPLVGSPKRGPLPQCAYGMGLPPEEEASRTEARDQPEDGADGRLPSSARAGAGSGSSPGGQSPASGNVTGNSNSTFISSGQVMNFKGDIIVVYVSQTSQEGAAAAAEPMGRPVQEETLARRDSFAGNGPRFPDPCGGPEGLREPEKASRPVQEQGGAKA
Method: as §1

[5] = molecular target: T5, LTβR on transiently transfected cells (UniProt P36941 31-435, limits assumed)
T5 construct: whole, on cells
Method: as §1

[6] = molecular target: T6, CD27 on transiently transfected cells (UniProt P26842 20-260, limits assumed)
T6 construct: whole, on cells
T6 sequence (looked up): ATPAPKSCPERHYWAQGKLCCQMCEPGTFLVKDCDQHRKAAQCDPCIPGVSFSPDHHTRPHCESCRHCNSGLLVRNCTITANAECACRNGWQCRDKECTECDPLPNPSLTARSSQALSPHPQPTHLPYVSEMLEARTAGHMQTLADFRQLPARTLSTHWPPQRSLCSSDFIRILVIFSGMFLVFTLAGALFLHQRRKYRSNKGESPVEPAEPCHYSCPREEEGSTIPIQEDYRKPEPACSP
Method: as §1

[7] = molecular target: T7, DR6 on transiently transfected cells (UniProt O75509 42-655, limits assumed)
T7 construct: whole, on cells
T7 sequence (looked up): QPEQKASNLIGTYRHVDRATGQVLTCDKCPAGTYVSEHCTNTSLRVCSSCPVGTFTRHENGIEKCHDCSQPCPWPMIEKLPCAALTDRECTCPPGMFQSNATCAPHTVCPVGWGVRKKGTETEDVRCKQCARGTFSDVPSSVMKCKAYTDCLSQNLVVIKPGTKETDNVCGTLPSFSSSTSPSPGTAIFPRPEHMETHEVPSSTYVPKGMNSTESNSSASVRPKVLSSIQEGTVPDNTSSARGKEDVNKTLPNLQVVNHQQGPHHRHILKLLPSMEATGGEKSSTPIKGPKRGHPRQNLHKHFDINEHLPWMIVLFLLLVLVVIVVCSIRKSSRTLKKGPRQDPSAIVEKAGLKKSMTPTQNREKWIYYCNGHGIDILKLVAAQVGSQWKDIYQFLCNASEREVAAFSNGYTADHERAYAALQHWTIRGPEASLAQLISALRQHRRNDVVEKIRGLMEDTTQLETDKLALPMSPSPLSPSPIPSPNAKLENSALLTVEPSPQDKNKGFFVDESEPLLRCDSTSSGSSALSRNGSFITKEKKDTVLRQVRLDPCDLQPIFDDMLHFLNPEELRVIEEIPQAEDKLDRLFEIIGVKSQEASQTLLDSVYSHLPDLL
Method: as §1

[8] = molecular target: T8, 4-1BB on transiently transfected cells (UniProt Q07011 24-255)
T8 construct: whole, on cells
Method: as §1

Measured: binding result

T8 sequence (Q07011 24-255): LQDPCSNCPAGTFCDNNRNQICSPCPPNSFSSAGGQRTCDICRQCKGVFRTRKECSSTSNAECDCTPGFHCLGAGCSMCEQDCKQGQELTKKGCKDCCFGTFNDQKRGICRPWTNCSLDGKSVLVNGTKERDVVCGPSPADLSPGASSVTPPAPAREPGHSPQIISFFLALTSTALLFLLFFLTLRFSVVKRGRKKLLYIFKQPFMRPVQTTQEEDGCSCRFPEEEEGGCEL
T5 sequence (P36941 31-435 limits assumed): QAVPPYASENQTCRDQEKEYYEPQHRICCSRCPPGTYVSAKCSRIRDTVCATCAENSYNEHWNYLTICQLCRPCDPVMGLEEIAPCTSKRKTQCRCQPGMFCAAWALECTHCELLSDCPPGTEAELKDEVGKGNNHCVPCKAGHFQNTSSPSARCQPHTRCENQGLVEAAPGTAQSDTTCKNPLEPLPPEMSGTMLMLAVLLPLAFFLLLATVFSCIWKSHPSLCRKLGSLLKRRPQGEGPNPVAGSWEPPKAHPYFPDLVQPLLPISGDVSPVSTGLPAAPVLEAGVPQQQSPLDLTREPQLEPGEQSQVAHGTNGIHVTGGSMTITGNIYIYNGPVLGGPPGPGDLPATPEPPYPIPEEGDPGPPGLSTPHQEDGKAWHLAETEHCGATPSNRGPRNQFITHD

B1: FLAG-tagged soluble TNF-gamma-beta (aa 72-251) (ligand, human)
chain: DYKDDDDKLKGQEFAPSHQQVYAPLRADGDKPRAHLTVVRQTPTQHFKNQFPALHWEHELGLAFTKNRMNYTNKFLLIPESGDYFIYSQVTFRGMTSECSEIRQAGRPNKPDSITVVITKVTDSYPEPTQLLMGTKSVCEVGSNWFQPIYLGAMFSLQEGDKLMVNVSDISLVDYTKEDKTFFGAFLL
notes: also called FLAG-TNF-gamma-beta; FLAG-TL1β
no binding: all assays above
